These are literature values, as cited in publication PMC6614495.

A word on the Kd: it is the equilibrium constant for the complex coming apart.

The data set addresses Amyloid beta (Homo sapiens) (UniProt P05067).

Chain of Amyloid beta (Homo sapiens) (P05067 672-711): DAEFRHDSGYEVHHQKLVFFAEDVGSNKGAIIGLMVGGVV
Chain of Clusterin (ApoJ) (P10909 23-227): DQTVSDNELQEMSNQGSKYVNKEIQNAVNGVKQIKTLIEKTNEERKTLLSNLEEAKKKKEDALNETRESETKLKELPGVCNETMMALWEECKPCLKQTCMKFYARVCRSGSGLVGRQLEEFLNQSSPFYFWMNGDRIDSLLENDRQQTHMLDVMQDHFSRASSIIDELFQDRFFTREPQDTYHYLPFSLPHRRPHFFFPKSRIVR
Chain of Clusterin (ApoJ) (P10909 228-449): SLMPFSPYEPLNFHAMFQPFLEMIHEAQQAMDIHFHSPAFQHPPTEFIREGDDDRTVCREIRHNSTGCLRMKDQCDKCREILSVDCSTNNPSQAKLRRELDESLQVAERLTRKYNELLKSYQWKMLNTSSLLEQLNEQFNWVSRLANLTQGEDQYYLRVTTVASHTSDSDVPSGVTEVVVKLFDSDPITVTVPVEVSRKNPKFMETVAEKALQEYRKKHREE

As for Clusterin (ApoJ) (from UniProt P10909), the Kd was 2 nM.
